# Test results taken from patent publication US20110262386A1, “METHODS OF TREATING INFLAMMATION” (CAROLUS THERPEUTICS, INC., priority 2008, published 2011).
# T1: CXCR2 (Homo sapiens, UniProt P25025)
# T1 construct: expressed in transfected cells
# T1 sequence (P25025 1-360): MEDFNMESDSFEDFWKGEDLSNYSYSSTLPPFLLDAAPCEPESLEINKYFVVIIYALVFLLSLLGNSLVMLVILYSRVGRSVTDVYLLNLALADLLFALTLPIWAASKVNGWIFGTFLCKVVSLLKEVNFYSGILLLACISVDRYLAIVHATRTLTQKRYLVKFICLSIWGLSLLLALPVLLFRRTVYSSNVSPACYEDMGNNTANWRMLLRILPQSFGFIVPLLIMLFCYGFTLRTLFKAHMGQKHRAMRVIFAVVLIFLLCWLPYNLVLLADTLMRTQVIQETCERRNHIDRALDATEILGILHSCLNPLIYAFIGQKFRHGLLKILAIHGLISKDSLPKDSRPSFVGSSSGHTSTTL
# B1: MIF: Recombinant MIF, expressed and purified as described; pro-inflammatory cytokine, ligand for CXCR2, CXCR4 and CD74 (protein)
# chain: PMFIVNTNVPRASVPDGFLSELTQQLAQATGKPPQYIAVHVVPDQLMAFGGSSEPCALCSLHSIGKIGGAQNRSYSKLLCGLLAERLRISPDRVYINYYDMNAANVGWNNSTFA
# Tests used:
# [1] = test system: Apoe−/− mice
# [2] = target: CXCR4-bearing Jurkat cells (Homo sapiens, UniProt P61073)
# Chain of CXCR4-bearing Jurkat cells (P61073 whole entry): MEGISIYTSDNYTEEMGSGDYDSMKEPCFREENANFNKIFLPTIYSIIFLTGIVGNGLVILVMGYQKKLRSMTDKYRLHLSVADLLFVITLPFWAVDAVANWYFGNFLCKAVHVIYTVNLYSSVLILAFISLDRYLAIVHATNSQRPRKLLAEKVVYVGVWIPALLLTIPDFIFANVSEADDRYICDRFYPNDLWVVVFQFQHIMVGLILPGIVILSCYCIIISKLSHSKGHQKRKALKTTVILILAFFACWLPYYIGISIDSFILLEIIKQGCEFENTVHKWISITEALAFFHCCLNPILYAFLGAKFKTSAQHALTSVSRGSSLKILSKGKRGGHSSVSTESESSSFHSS
# [3] = test system: MonoMac6 cells; test: Monocytic cell arrest under flow on CHO/ICAM-1 cells; format: cell-based; conditions: exposure 2 h, flow conditions
# Protocol: (§1) Arrest of calcein-AM (Molecular Probes)-labeled monocytes, T cells and L1.2 transfectants was quantified in parallel-wall chambers in flow (1.5 dynes/cm^2, 5 min) (Schober, A., at al. (2004) Circulation 109, 380-385; Osterman, G., at al. (2002) Nat. Immunol. 3, 151-158; Weber, C., at al. (1996) J. Cell Biol. 134, 1063-1073).
# [4] = test system: primary human effector T cells; test: T-cell arrest under flow on aortic endothelial cells; format: cell-based; conditions: immobilized on aortic endothelial cells
# Protocol: as §1
# [5] = target: T1, CXCR2; test: CXCR2 internalization assay, HEK293-CXCR2; format: cell-based; conditions: FACS of surface CXCR2, stable HEK293 transfectants
# Protocol: (§2) Internalization was calculated relative to surface expression of buffer-treated cells (100% control) and isotype control staining (0% control): geometric MFI[experimental]−MFI[0% control]/MFI[100% control]−MFI[0% control]×100.
# [6] = test system: human aortic (or venous) endothelial cells; test: Real-time PCR and ELISA of arrest chemokines in endothelial cells; format: cell-based; conditions: 2-h-long preincubation
# Protocol: RNA was reverse-transcribed using oligo-dT primers. RTPCR was performed using QuantiTect Kit with SYBRGreen (Qiagen), specific primers and an MJ Opticon2 (Biozym). CXCL8 was quantified by Quantikine ELISA (R&D).
# [7] = test system: primary human monocytes; test: Monocyte arrest under flow on human aortic endothelial cells; format: cell-based; conditions: endothelial cells pretreated 2 h, flow conditions
# Protocol: as §1
# [8] = test system: αLβ2 (LFA-1); test: αLβ2 integrin activation assay (327C reporter antibody, flow cytometry); format: cell-based; conditions: MonoMac6 cells and human blood monocytes; persisted over 30 min
# Source text: LFA-1 activation analyzed by flow cytometry is reported as the increase in mean fluorescent intensity (MFI) or relative to the positive control (Shamri, R., at al. (2005) Nat. Immunol. 6, 497-506).
# [9] = test system: mice with wild-type bone marrow; test: Model of acute peritonitis (MIF-induced); format: in vivo, mouse; conditions: after 4 h
# Protocol: After 4 h, peritoneal lavage was performed and Gr-1^+CD115^−F4/80^− neutrophils were quantified by flow cytometry using the relevant conjugated antibodies.
# [10] = test system: postcapillary venules of cremaster muscle; test: Cremaster microcirculation model, intravital microscopy; format: in vivo, mouse; conditions: MIF injected adjacent to the muscle
# Protocol: After 4 h, intravital microscopy (Zeiss Axioplan; 20×) was performed in postcapillary venules (Gregory, J. L., at al. (2004) Arthritis Rheum. 50, 3023-3034; Keane, M. P., at al. (2004) J. Immunol. 172, 2853-2860). Adhesion was measured as leukocytes stationary for more than 30 s, emigration as the number of extravascular leukocytes per field.
# [11] = test system: CXCR2; test: Calcium mobilization in L1.2 CXCR2 transfectants; format: cell-based
# [12] = test system: primary human neutrophils; test: Transwell chemotaxis of neutrophils; format: cell-based
# Protocol: (§3) Pore sizes and intervals were 5 μm and 3 h (monocytes), 3 μm and 1.5 h (T cells), and […] and 1 h (neutrophils).
# [13] = test system: primary CD3+ T lymphocytes; test: Transwell chemotaxis of T cells; format: cell-based, human; conditions: CD3+ T lymphocytes devoid of CXCR1 and CXCR2
# Protocol: as §3
# [14] = test system: primary human monocytes; test: Transwell chemotaxis of monocytes; format: cell-based
# Protocol: as §3
# [15] = target: T2, CCR5 (Homo sapiens, UniProt P51681); test: CCR5 internalization in L1.2 CCR5 transfectants; format: cell-based
# T2 construct: host or cells: L1.2 pre-B lymphoma cells
# T2 sequence (P51681 whole entry): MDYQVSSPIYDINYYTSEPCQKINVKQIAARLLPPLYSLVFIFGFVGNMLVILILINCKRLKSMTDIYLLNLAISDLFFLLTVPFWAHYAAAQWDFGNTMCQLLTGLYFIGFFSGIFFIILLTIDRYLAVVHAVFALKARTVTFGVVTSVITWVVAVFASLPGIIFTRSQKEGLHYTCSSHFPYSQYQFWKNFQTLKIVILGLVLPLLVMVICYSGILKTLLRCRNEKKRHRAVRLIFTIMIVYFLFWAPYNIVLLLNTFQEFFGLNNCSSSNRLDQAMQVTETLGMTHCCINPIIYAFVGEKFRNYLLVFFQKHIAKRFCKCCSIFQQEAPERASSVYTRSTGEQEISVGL
# Protocol: as §2
# [16] = test system: primary human neutrophils; test: Calcium mobilization in neutrophils (Fluo-4 AM); format: cell-based
# [17] = 12 weeks, compared with vehicle controls
molecule,measurement,setting,value
c1ccc(CNCc2ccc(CN3CCCNCCNCCCNCC3)cc2)nc1 [AMD3465],lesion formation in oil red O-stained aortic root sections,[1]; [17],significantly exacerbates lesion formation
same,lesion formation in thoracoabdominal aortas prepared en face,[1]; [17],significantly exacerbates lesion formation
same,relative number of circulating neutrophils,[1]; further increases during disease progression,expansion in the relative number of circulating neutrophils
same,peripheral blood leukocytes,"[1]; within 2 days, sustained throughout the study period",pronounced peripheral blood leukocytosis
same,effect on specific binding of fluorescein-MIF to CXCR4-bearing Jurkat cells,[2],inhibited
CXCL8: Chemokine from PeproTech; cognate CXCR2 ligand [reference compound],monocytic cell arrest on pretreated CHO/ICAM-1 transfectants,[3],increased monocytic cell arrest
CXCL12: Chemokine from PeproTech; known CXCR4 ligand and T-cell chemoattractant [reference compound],arrest of primary human effector T cells,[4],triggered the arrest
B1,CXCR2 internalization,[5],induced CXCR2 internalization
same,"upregulation of arrest chemokines known to engage CXCR2 (CXCL1, CXCL8)",[6],failed to upregulate
same,arrest of primary human monocytes on pretreated endothelial cells,[7],substantially increased
same,earliest time of αLβ2 activation after exposure,[8],1 min
same,neutrophil recruitment after intraperitoneal injection,[9],elicited neutrophil recruitment
same,leukocyte adhesion and emigration in postcapillary venules,[10],marked increase
same,arrest of primary human effector T cells,[4],triggered the arrest
same,monocytic cell arrest on pretreated CHO/ICAM-1 transfectants,[3],increased monocytic cell arrest
same,calcium influx in CXCR2 transfectants,[11],"dose-dependently induced calcium influx, and was slightly less potent and effective than CXCL8 or CXCL7"
same,chemotactic activity on neutrophils,[12],exerted CXCR2- but not CXCR1-mediated chemotactic activity
same,induction of T-cell transmigration,[13],dose-dependently induced transmigration
same,MIF concentration that induced optimal chemotaxis,[14],2 to 4 nM
same,optimum concentration of bell-shaped dose-response curve of monocyte migration,[14]; MIF in lower chamber,25 to 50 ng/mL
same,CCR5 internalization,[15],unable to induce CCR5 internalization
same,calcium influx in neutrophils,[16],induced calcium influx
